Assay results reported in paper PMC4919504.

Tests used:
Test in all cases: anti-GFP IP, LC-MS/MS spectral counts
Numa1 = Numa1 (UniProt Q14980); details: sites S1448
Git1 = Git1 (UniProt Q9Y2X7); details: reference: S1448A GFP-Scribble; sites S1448
Vimentin = Vimentin (UniProt P08670); details: reference: S1448A GFP-Scribble; sites S1448
Beta-pix = Beta-pix (UniProt Q14155); details: reference: S1448A GFP-Scribble; sites S1448
[1] = reference: wild type GFP-Scribble

other: spectral counts (Numa1; [1]) | other: spectral counts (Git1) | other: spectral counts (Vimentin) | other: spectral counts (Numa1; reference: S1448A GFP-Scribble) | other: spectral counts (Beta-pix) | Substance
weaker; reference 34 |  |  |  |  | Scribble (from UniProt Q14160) S1448A GFP-Scribble
same; reference 34 | same; reference 72 | same; reference 277 | stronger; reference 8 | same; reference 49 | Scribble (from UniProt Q14160) S1448D GFP-Scribble
